This is an account of results in patent publication US20080227123A1.

The target in this test is B cell antigen receptor (BCR; surface IgM) on DT40-ASF cells (chicken). Put plainly: cell-based or functional assay.

For “antibody M4 (mouse-derived anti-chicken IgM monoclonal antibody)”, the recovery of cell proliferation of doxycycline-treated DT40-ASF cells was > 1 µg/mL.
